The data set concerns the molecule itself. Nature of the data set: negative-stain electron microscopy; purified Hcp1-His diluted to 0.01 mg/ml, 2% uranyl acetate, 2D class averages with top and side views.

B1: Hcp1-His (natural protein)
chain: MAVDMFIKIGDVKGESKDKTHAEEIDVLAWSWGMSQSGSMHMGGGGGAGKVNVQDLSFTKYIDKSTPNLMMACSSGKHYPQAKLTIRKAGGENQVEYLIITLKEVLVSSVSTGGSGGEDRLTENVTLNFAQVQVDYQPQKADGAKDGGPVKYGWNIRQNVQA
notes: Hcp1 of Pseudomonas aeruginosa, the Hcp of the H1-T6SS; also called His-tagged version of Hcp1; source: E. coli BL21(λDE3), from pACYCDuet-1; coexpressed with an effector, in lysate, copurified (Ni-NTA, SEC); also purified alone (Ni-NTA, SEC); not shown: His, C-terminal, kept
As to B1, the binding result is recorded as “binds”.

These data come from paper PMC8262886, “The Breadth and Molecular Basis of Hcp-Driven Type VI Secretion System Effector Delivery” (mBio, 2021).
